This note sets out measurements from patent US9518268B2, “Drought tolerant transgenic plants and method of making same” (PURDUE RESEARCH FOUNDATION, priority 2013, dated 2016).

In this experiment the test system is RD29B-LUC expression. As to the kind of experiment: Reconstituted ABA signaling pathway, transient expression in wild-type (Col-0) protoplasts. The format is cell-based, Arabidopsis. The settings on record: for ABA-dependent induction of RD29B-LUC expression: co-transfected with ABI1, SnRK2.6 and ABF2, without or with 5 μM ABA, 4.5 h; for RD29B-LUC expression: SnRK2.6 and ABF2; for level of inhibition by PYL13 of the other PYL's activity: 2×PYL13 plasmid, ABI1, SnRK2.6, ABF2 co-expressed. How it is done:
To test whether PYL13 can act as an ABA receptor, the ABA signaling pathway in wild-type protoplasts was reconstituted. Turning now to FIG. 1, wild-type (Col-0) protoplasts were used in both panels A and B. After transfection, the protoplasts were incubated for 4.5 hours under light in the absence of ABA (open bars) or in the presence of 5 μM ABA (closed bars). Error bars indicate s.e.m. (n=3). […] ZmUBQ-GUS was used as the internal control. […] Instead, the ABA signaling pathway was reconstituted by co-expression of PYLs, ABI1, SnRK2.6, and ABF2. […] Therefore, the response of other members of the PYL family would not predict the response of PYL13 expression or over-expression in plants.
PYL13 interacts with all clade A PP2Cs tested but binds most strongly to PP2CA. To investigate whether PYL13 inhibits PP2Cs in planta, PYL13 was co-expressed with all clade A PP2Cs in wild-type protoplasts, as shown in FIG. 4. Transfections of all PP2Cs together with SnRK2.6 and ABF2 inhibited RD29B-LUC expression to different degrees, see FIG. 4A, and the degree of inhibition was correlated with the intensity of interaction between PP2Cs and SnRK2.6 (Fujii et al., 2009). […] The ABA signaling pathway was reconstituted by co-expression of PYLs, PP2Cs, SnRK2.6, and ABF2. RD29B-LUC was used as the ABA-responsive reporter. ZmUBQ-GUS was used as the internal control. After transfection, protoplasts were incubated for 4.5 h under light in the absence of ABA (open bars) or in the presence of 5 μM ABA (closed bars). Error bars indicate s.e.m. (n=9).
To investigate the physiological significance of the binding between PYL13 and PYLs in vivo, PYL13 was co-expressed with one of the other PYLs, ABI1, SnRK2.6, and ABF2 in wild-type protoplasts. When the transfected PYL13 plasmid was 2-fold of that of the other PYLs, co-transfections with PYL13 decreased the activity of the ABA-responsive PYLs (FIG. 5E). […] ZmUBQ-GUS was used as the internal control. After transfection, protoplasts were incubated for 4.5 h under light in the absence of ABA (open bars) or in the presence of 5 μM ABA (closed bars). Error bars indicate s.e.m. (n=3).
The ABA signaling pathway was reconstituted by co-expression of PYL13, PYLs, ABI1, SnRK2.6, and ABF2. […] Error bars indicate s.e.m. (n=3). […] Without wishing to be bound by theory, PYL13 inhibition of other PYLs might result from direct interactions between PYL13 and other PYLs or from competition for the binding sites on PP2Cs.
Assays for transient expression in protoplasts were performed as described (Fujii et al., 2009). Leaf strips (0.5 mm) were cut from the middle part of second leaves using a razor blade (VWR SCIENTIFIC) and submerged in 15 mL of enzyme solution containing 20 mM MES, pH 5.7, 1.5% (w/v) cellulase R10 (YAKULT PHARMACEUTICAL INDUSTRY), 0.4% (w/v) macerozyme R10 (YAKULT PHARMACEUTICAL INDUSTRY), 0.4 M mannitol, 20 mM KCl, 10 mM CaCl2, 1 mM 2-mercaptoethanol, and 0.1% BSA. The leaves were vacuum infiltrated for 30 min and then incubated without shaking for 3 h in the dark at room temperature. The enzyme/protoplast solution was diluted with 15 mL of W5 solution (2 mM MES, pH 5.7, 154 mM NaCl, 125 mM CaCl2, and 5 mM KCl) and filtered with a 75-μm nylon mesh. Protoplasts were centrifuged at 100 g for 2 min in a 30-mL round-bottomed tube (SARSTEDT), resuspended in W5 solution, and rested for 30 min at room temperature.
Before transfection, protoplasts were changed into MMg solution (4 mM MES, pH 5.7, 0.4 M mannitol, and 15 mM MgCl2) to a final concentration of 2×10^5 cells per microliter. Protoplasts (100 μl) were gently and thoroughly mixed with the plasmid DNA mixture (less than 10 μl) and 110 μl of PEG solution (40% w/v PEG-4000, 0.2 M mannitol, and 100 mM CaCl2), incubated for 5 min, washed with 440 μl of W5 solution, and resuspended in 50 μl of WI solution (4 mM MES, pH 5.7, 0.5 M mannitol, and 20 mM KCl). After transfection, protoplasts were incubated in WI solution without ABA or with 5 μM ABA under light. […]

“Also recorded” adds a separate entry of the source.

On to “PYL2: Arabidopsis thaliana PYL family ABA receptor protein PYL2, AT2G26040”, for which the “ABA-dependent induction of RD29B-LUC expression” value was “enabled the expression; also recorded: restored RD29B-LUC expression”.

B1: PYL13: Arabidopsis thaliana PYR/PYL/RCAR family protein PYL13, SEQ ID NO: 1 (protein, listed as Arabidopsis thaliana)
chain: MESSKQKRCRSSVVETIEAPLPLVWSILRSFDKPQAYQRFVKSCTMRSGGGGGKGGEGKGSVRDVTLVSGFPADFSTERLEELDDESHVMVVSIIGGNHRLVNYKSKTKVVASPEDMAKKTVVVESYVVDVPEGTSEEDTIFFVDNIIRYNLTSLAKLTKKMMK
Consider B1, for which the “ABA-dependent induction of RD29B-LUC expression” value is reported as “did not enable the expression”. In addition, the RD29B-LUC expression result (co-transfection with ABI1, ABI2, HAB1, HAB2, or AHG1) was “did not enable RD29B-LUC expression”. Where the note is “co-transfection with PP2CA, HAI2, or HAI3”, the RD29B-LUC expression entry is “enabled the ABA-dependent induction”. Besides, the “level of inhibition by PYL13 of the other PYL's activity” value (with PYL1) was determined as 67%. Also, where the note is “with PYL2”, the “level of inhibition by PYL13 of the other PYL's activity” value is recorded as 27%.
